# Source: patent US20240352438A1, “MEANS AND METHODS FOR DETOXIFYING OCHRATOXIN A” (DSM Austria GmbH, priority 2021, published 2024)
# Residue numbers refer to the chain shown, from its start.
# B1: 258 (protein)
# chain: MTTRTRILTAFLSLLAANACAADAAPAAPHTVVLRAARMFDGASGKLVDHPQLTIVGNKIVRIAQGDKAEVPAGAEVVDLGDATLLPGFIDAHVHLSGQSSDNWYGDFFDNMMRFPAEQALYGAYYARITLEAGFTSVRDVGSTDWVALGLRNAIDAGKVPGPRMLVSNYAVGSTGGHADQDPIPPHKLPLAGPLQGVCNGPEECRAAVRYQIKYGANVIKFMPSGGVLSLSDPVDAPELSQDEMNAVIGESHAWGRKVAAHAHGDKAAKMAVAAGVDSIEHGDFIEDDTLRAMKAKNVYLVPTISAIAHVEEKIGTFPPVIAEKGRATAAHLRQTFRHAVQIGVPIALGTDAGVGAHGSNAREFRYMVENGLTPAQALLAGTANAARLLGTFDRVGTLEAGKLADVVAVPGNPIADITVTERPLFVMKDGVVVRRDAVR
# modifications: exemplary polypeptide
# B2: 266 (protein)
# chain: B1 chain with D107R, D284S, T329A
# modifications: exemplary polypeptide
# B3: 283 (protein)
# chain: B1 chain with V235D, D284S, T329A
# modifications: exemplary polypeptide
# B4: 271 (protein)
# chain: B1 chain with M113R, D284S, T329A
# modifications: exemplary polypeptide
# B5: 298 (protein)
# chain: B1 chain with D284S, T329A, G354A, G356Y
# modifications: exemplary polypeptide
# B6: 264 (protein)
# chain: B1 chain with Y105R, D284S, T329A
# modifications: exemplary polypeptide
# B7: 278 (protein)
# chain: B1 chain with A192M, D284S, T329A
# modifications: exemplary polypeptide
# B8: 314 (protein)
# chain: B1 chain with D284S, I308V, T329A, L333I
# modifications: exemplary polypeptide
# B9: 279 (protein)
# chain: B1 chain with A192V, D284S, T329A
# modifications: exemplary polypeptide
# B10: 100 (protein)
# chain: B1 chain with F109L, D284S, T329A
# modifications: exemplary polypeptide
# B11: 263 (protein)
# chain: B1 chain with Y105N, D284S, T329A
# modifications: exemplary polypeptide
# B12: 65 (protein)
# chain: B1 chain with D284S, T329A, N361W
# modifications: exemplary polypeptide
# B13: 265 (protein)
# chain: B1 chain with G106P, D284S, T329A
# modifications: exemplary polypeptide
# B14: 276 (protein)
# chain: B1 chain with G176S, D284S, T329A
# modifications: exemplary polypeptide
# B15: 92 (protein)
# chain: B1 chain with D284S, F318M, T329A
# modifications: exemplary polypeptide
# B16: 93 (protein)
# chain: B1 chain with D284S, T329G
# modifications: exemplary polypeptide
# B17: 101 (protein)
# chain: B1 chain with M112I, D284S, T329A
# modifications: exemplary polypeptide
# B18: 293 (protein)
# chain: B1 chain with D284S, I308V, T329V
# modifications: exemplary polypeptide
# B19: 99 (protein)
# chain: B1 chain with F109V, D284S, T329A
# modifications: exemplary polypeptide
# B20: 86 (protein)
# chain: B1 chain with D284S, A307T, T329A
# modifications: exemplary polypeptide
# B21: 90 (protein)
# chain: B1 chain with D284S, T329A, G354A
# modifications: exemplary polypeptide
# B22: 277 (protein)
# chain: B1 chain with A192L, D284S, T329A
# modifications: exemplary polypeptide
# B23: 302 (protein)
# chain: B1 chain with D284S, T329A, G354P, V355L
# modifications: exemplary polypeptide
# Assay: OTA detoxification activity assay (specific activity, fluorescence reduction ex/em 390/450 nm)
# Type: biochemical
# Conditions: pH 6.0; SEQ ID NO: 1 = 100%
# Method: To determine the specific activity of recombinant target polypeptides produced e.g. as described in Example 2 above in units per liter (U/L), ochratoxin A (OTA) detoxification activity assays were performed. One unit is defined as the amount of enzyme necessary for degradation of 1 μmol or OTA in 1 min when using a starting OTA concentration of […].
# OTA detoxification activity assays were set up in a final volume of the reaction mixture of […], containing the recombinant enzyme preparation (preferably diluted to yield a volumetric activity of 1-10 mU/L), and 200 ng/mL OTA in 100 mM sodium phosphate buffer.
# Specific activities were determined at pH 6.0 and pH 7.5. As soon as all components of the reaction mixture were mixed, OTA degradation was followed at 37° C. on a fluorescence spectrophotometer (BioTek Synergy H1 MFD Multimode microplate reader) by following the reduction in fluorescence at ex/em 390 nm/450 nm. For work performed at pH 6.0 and 7.5, a 100 mM sodium phosphate buffer was used.
# For calculation of the specific activity, the initial linear part of the recorded fluorescence reduction curve was used. In addition to the fluorescence-based method described above, OTA degradation was also determined by using the HPLC-MS method as described by Dellafiora et al. 2020, Toxins 12, 258, essentially confirming the fluorescence-based results. Genes encoding either of the indicated SEQ ID NOs are expressed as described herein and the specific activities for the obtained polypeptide preparation are exemplarily shown in Table 8. Analogously, enzymatic activities using either ochratoxin B, C or TA as substrate or can be found.
row,Molecule,"Specific OTA detoxification activities in % compared to the enzyme of SEQ ID NO: 1, pH 6.0"
1,B1,29%
2,B2,11%
3,B3,29%
4,B4,6%
5,B5,15%
6,B6,46%
7,B7,32%
8,B8,71%
9,B9,23%
10,B10,43%
11,B11,19%
12,B12,4%
13,B13,20%
14,B14,13%
15,B15,37%
16,B16,20%
17,B17,82%
18,B18,16%
19,B19,52%
20,B20,4%
21,B21,99%
22,B22,6%
23,B23,26%

# Same assay, conditions: pH 7.5; SEQ ID NO: 1 = 100%
row,Molecule,"Specific OTA detoxification activities in % compared to the enzyme of SEQ ID NO: 1, pH 7.5"
1,B1,25%
2,B2,22%
3,B3,23%
4,B4,23%
5,B5,17%
6,B6,44%
7,B7,19%
8,B8,33%
9,B9,36%
10,B10,28%
11,B11,11%
12,B12,10%
13,B13,11%
14,B14,30%
15,B15,52%
16,B16,17%
17,B17,89%
18,B18,18%
19,B19,58%
20,B20,9%
21,B21,162%
22,B22,14%
23,B23,23%
